Data published in patent US20050106100.

How the values were obtained:
[1] = molecular target: T1, Ac-VRW˜LTA-Ahxh-Hynic (not fully specified)
T1 chain: VRWLTA

[2] = molecular target: T2, Ac-Tic-Cit-G˜Hphe-SA-Ahxh-Hynic
T2 chain: XXGXSA

[3] = molecular target: T3, Ac-PLG˜S(OBn)-LL-Ahxh-Hynic
T3 chain: PLGSLL

[4] = molecular target: T4, Ac-P-Cit-G˜Hphe-Cit-L-Ahxh-Hynic (not fully specified)
T4 chain: PXGXXL

[5] = molecular target: T5, Ac-PLG˜Hphe-YLA-Ahxh-Hynic
T5 chain: PLGXYLA

[6] = molecular target: T6, Ac-PLG˜Hphe-K(Me)2-L-Ahxh-Hynic (not fully specified)
T6 chain: PLGXKL

[7] = molecular target: T7, NLys-NLys-PLG˜Hphe-YL-Ahxh-Hynic
T7 chain: XXPLGXYL

[8] = molecular target: T8, Ac-P-Cit-G˜Hphe-Cha-A-Ahxh-Ac[C14] (not fully specified)
T8 chain: PXGXXA

[9] = molecular target: T9, Ac-PLG˜Hphe-YL-Ambh-Hynic
T9 chain: PLGXYL

[10] = molecular target: T10, Ac-PLG˜LY-Ahxh-Ac[C14] (not fully specified)
T10 chain: PLGLY

[11] = molecular target: T11, Ac-PL-DAla˜LL-Ahxh-Hynic (not fully specified)
T11 chain: PLALL

[12] = molecular target: T12, Ac-PLG˜LOL-Ahxh-Hynic (not fully specified)
T12 chain: PLGLXL

[13] = molecular target: T13, Ac-PLG˜LYT-Ahxh-Ac[C14] (not fully specified)
T13 chain: PLGLYT

[14] = molecular target: T14, Ac-PLG˜L-Cha-Ahxh-Hynic
T14 chain: PLGLX

[15] = molecular target: T15, Ac-PLG˜Hphe-YLR-Ahxh-Hynic
T15 chain: PLGXYLR

[16] = molecular target: T16, Ac-PLG˜LHL-Ahxh-Hynic
T16 chain: PLGLHL

[17] = molecular target: T17, NLys-PLG˜Hphe-YL-Ambh-Hynic
T17 chain: XPLGXYL

[18] = molecular target: T18, Ac-Oic-LG˜LL-Ahxh-Ac[C14] (not fully specified)
T18 chain: XLGLL

[19] = molecular target: T19, Ac-PLG˜LLA-Ahxh-Hynic (not fully specified)
T19 chain: PLGLLA

[20] = molecular target: T20, Ac-PL-NLys˜LL-Ahxh-Ac[C14] (not fully specified)
T20 chain: PLXLL

[21] = molecular target: T21, Ac-P-Cit-G˜Hphe-L-Ahxh-Hynic (not fully specified)
T21 chain: PXGXL

[22] = molecular target: T22, Ac-P-Hcit-G˜Hphe-SA-Ahxh-Hynic (not fully specified)
T22 chain: PXGXSA

[23] = molecular target: T23, Ac-PLG˜Hphe-YL-Ahxh-Hynic (not fully specified)
T23 chain: PLGXYL

[24] = molecular target: T24, Ac-PLG˜Hphe-OLA-Ahxh-Hynic
T24 chain: PLGXXLA

[25] = molecular target: T25, Ac-POG˜Hphe-L-Ambh-Hynic
T25 chain: PXGXL

[26] = molecular target: T26, Ac-PLG˜S(OBn)-LL-Ahxh-Ac[C14] (not fully specified)
T26 chain: PLGSLL

[27] = molecular target: T27, Ac-P-Cit-G˜S(OBn)-LA-Ahxh-Ac[C14] (not fully specified)
T27 chain: PXGSLA

[28] = molecular target: T28, Ac-PLG˜Hphe-OL-Ambh-Hynic
T28 chain: PLGXXL

[29] = molecular target: T29, Ac-PLG˜Hphe-RLT-Ahxh-Hynic
T29 chain: PLGXRLT

[30] = molecular target: T30, Ac-P-Cit-G˜Abu-LA-Ahxh-Hynic (not fully specified)
T30 chain: PXGXLA

[31] = molecular target: T31, Ac-PLG˜LL-Ahxh-Ac[C14] (not fully specified)
T31 chain: PLGLL

[32] = molecular target: T32, Ac-PL-NLys˜Hphe-L-Ahxh-Ac[C14] (not fully specified)
T32 chain: PLXXL

[33] = molecular target: T33, Ac-P-NLys-R˜LTA-Ahxh-Hynic (not fully specified)
T33 chain: PXRLTA

[34] = molecular target: T34, Ac-NGlu-PLG˜Hphe-YL-Ahxh-Ac[C14] (not fully specified)
T34 chain: XPLGXYL

[35] = molecular target: T35, Ac-P-Cit-G˜Hphe-LQ-Hynic (not fully specified)
T35 chain: PXGXLQ

[36] = molecular target: T36, Ac-P-Cit-G˜Aib-LA-Ahxh-Hynic (not fully specified)
T36 chain: PXGXLA

[37] = molecular target: T37, Ac-Csa-PLG˜Hphe-YL-Ambh-Hynic (not fully specified)
T37 chain: XPLGXYL

[38] = molecular target: T38, Ac-PLG˜Hphe-OLR-Ahxh-Hynic
T38 chain: PLGXXLR

[39] = molecular target: T39, Ac-Inp-Cit-G˜Hphe-LA-Ahxh-Hynic (not fully specified)
T39 chain: XXGXLA

[40] = molecular target: T40, Ac-PLG-LYV-Ahxh-Ac[C14]
T40 chain: PLGLYV

[41] = molecular target: T41, Ac-P-Cit-G˜Nle-LA-Ahxh-Hynic (not fully specified)
T41 chain: PXGXLA

[42] = molecular target: T42, Ac-P-Cha-G˜LL-Ahxh-Ac[C14] (not fully specified)
T42 chain: PXGLL

[43] = molecular target: T43, Ac-P-Cit-G˜Igl-LA-Ahxh-Hynic (not fully specified)
T43 chain: PXGXLA

[44] = molecular target: T44, Ac-PRR˜LTA-Ahxh-Hynic
T44 chain: PRRLTA

[45] = molecular target: T45, Ac-PLG˜LYS-Ahxh-Ac[C14] (not fully specified)
T45 chain: PLGLYS

[46] = molecular target: T46, Suc-PLG˜LYT-Ahxh-Hynic
T46 chain: PLGLYT

[47] = molecular target: T47, Ac-PLG˜LYL-Ahxh-Hynic (not fully specified)
T47 chain: PLGLYL

[48] = molecular target: T48, Ac-PLG˜Hphe-RL-Ahxh-Hynic
T48 chain: PLGXRL

[49] = molecular target: T49, Ac-PL-Sar˜LL-Ahxh-Ac[C14] (not fully specified)
T49 chain: PLXLL

[50] = molecular target: T50, Ac-PLG˜LWA-Ahxh-Hynic (not fully specified)
T50 chain: PLGLWA

[51] = molecular target: T51, Ac-P-NMeArg-R˜LTA-Ambh-Hynic (not fully specified)
T51 chain: PRRLTA

B1: MMP-2 (protein)
chain: APSPIIKFPGDVAPKTDKELAVQYLNTFYGCPKESCNLFVLKDTLKKMQKFFGLPQTGDLDQNTIETMRKPRCGNPDVANYNFFPRKPKWDKNQITYRIIGYTPDLDPETVDDAFARAFQVWSDVTPLRFSRIHDGEADIMINFGRWEHGDGYPFDGKDGLLAHAFAPGTGVGGDSHFDDDELWTLGEGQVVRVKYGNADGEYCKFPFLFNGKEYNSCTDTGRSDGFLWCSTTYNFEKDGKYGFCPHEALFTMGGNAEGQPCKFPFRFQGTSYDSCTTEGRTDGYRWCGTTEDYDRDKKYGFCPETAMSTVGGNSEGAPCVFPFTFLGNKYESCTSAGRSDGKMWCATTANYDDDRKWGFCPDQGYSLFLVAAHEFGHAMGLEHSQDPGALMAPIYTYTKNFRLSQDDIKGIQELYGASPDIDLGTGPTPTLGPVTPEICKQDIVFDGIAQIRGEIFFFKDRFIWRTVTPRDKPMGPLLVATFWPELPEKIDAVYEAPQEEKAVFFAGNEYWIYSASTLERGYPKPLTSLGLPPDVQRVDAAFNWSKNKKTYIFAGDKFWRYNEVKKKMDPGFPKLIADAWNAIPDNLDAVVDLQGGGHSYFFKGAYYLKLENQSLKSVKFGSIKSDWLGC
Question: How did the Kcat/Km [1] turn out when B1 was run?
Answer: 14400 M⁻¹ s⁻¹

Question: What about the Kcat/Km [2] of the same protein?
Answer: 3100 M⁻¹ s⁻¹

Question: And the Kcat/Km [3]?
Answer: 180000 M⁻¹ s⁻¹

Question: And the Kcat/Km [4]?
Answer: 42600 M⁻¹ s⁻¹

Question: And the Kcat/Km [5]?
Answer: 221000 M⁻¹ s⁻¹

Question: And the Kcat/Km [6]?
Answer: 72000 M⁻¹ s⁻¹

Question: What about the Kcat/Km [7] of the same protein?
Answer: 26300 M⁻¹ s⁻¹

Question: What about the Kcat/Km [8] of the same protein?
Answer: > 500000 M⁻¹ s⁻¹

Question: And the Kcat/Km [9]?
Answer: 63200 M⁻¹ s⁻¹

Question: And the Kcat/Km [10]?
Answer: 283000 M⁻¹ s⁻¹

Question: What about the Kcat/Km [11] of the same protein?
Answer: 0 M⁻¹ s⁻¹

Question: What about the Kcat/Km [12] of the same protein?
Answer: 91400 M⁻¹ s⁻¹

Question: And the Kcat/Km [13]?
Answer: 413000 M⁻¹ s⁻¹

Question: What about the Kcat/Km [14] of the same protein?
Answer: 120000 M⁻¹ s⁻¹

Question: And the Kcat/Km [15]?
Answer: 364000 M⁻¹ s⁻¹

Question: And the Kcat/Km [16]?
Answer: 73700 M⁻¹ s⁻¹

Question: And the Kcat/Km [17]?
Answer: 121000 M⁻¹ s⁻¹

Question: And the Kcat/Km [18]?
Answer: 0 M⁻¹ s⁻¹

Question: And the Kcat/Km [19]?
Answer: 387000 M⁻¹ s⁻¹

Question: And the Kcat/Km [20]?
Answer: 180000 M⁻¹ s⁻¹

Question: And the Kcat/Km [21]?
Answer: 161000 M⁻¹ s⁻¹

Question: And the Kcat/Km [22]?
Answer: 293000 M⁻¹ s⁻¹

Question: And the Kcat/Km [23]?
Answer: > 100000 M⁻¹ s⁻¹

Question: And the Kcat/Km [24]?
Answer: 29500 M⁻¹ s⁻¹

Question: And the Kcat/Km [25]?
Answer: 77700 M⁻¹ s⁻¹

Question: And the Kcat/Km [26]?
Answer: 473000 M⁻¹ s⁻¹

Question: What about the Kcat/Km [27] of the same protein?
Answer: > 500000 M⁻¹ s⁻¹

Question: And the Kcat/Km [28]?
Answer: 42700 M⁻¹ s⁻¹

Question: What about the Kcat/Km [29] of the same protein?
Answer: 119000 M⁻¹ s⁻¹

Question: And the Kcat/Km [30]?
Answer: 17600 M⁻¹ s⁻¹

Question: What about the Kcat/Km [31] of the same protein?
Answer: 148000 M⁻¹ s⁻¹

Question: And the Kcat/Km [32]?
Answer: 465000 M⁻¹ s⁻¹

Question: And the Kcat/Km [33]?
Answer: 0 M⁻¹ s⁻¹

Question: And the Kcat/Km [34]?
Answer: 351000 M⁻¹ s⁻¹

Question: And the Kcat/Km [35]?
Answer: 171000 M⁻¹ s⁻¹

Question: What about the Kcat/Km [36] of the same protein?
Answer: 0 M⁻¹ s⁻¹

Question: What about the Kcat/Km [37] of the same protein?
Answer: 19500 M⁻¹ s⁻¹

Question: What about the Kcat/Km [38] of the same protein?
Answer: 46600 M⁻¹ s⁻¹

Question: And the Kcat/Km [39]?
Answer: 4580 M⁻¹ s⁻¹

Question: What about the Kcat/Km [40] of the same protein?
Answer: 396000 M⁻¹ s⁻¹

Question: And the Kcat/Km [41]?
Answer: 174000 M⁻¹ s⁻¹

Question: What about the Kcat/Km [42] of the same protein?
Answer: 24700 M⁻¹ s⁻¹

Question: What about the Kcat/Km [43] of the same protein?
Answer: 189 M⁻¹ s⁻¹

Question: And the Kcat/Km [44]?
Answer: 10100 M⁻¹ s⁻¹

Question: What about the Kcat/Km [45] of the same protein?
Answer: > 500000 M⁻¹ s⁻¹

Question: And the Kcat/Km [46]?
Answer: 141000 M⁻¹ s⁻¹

Question: What about the Kcat/Km [47] of the same protein?
Answer: 65300 M⁻¹ s⁻¹

Question: What about the Kcat/Km [48] of the same protein?
Answer: 242000 M⁻¹ s⁻¹

Question: And the Kcat/Km [49]?
Answer: 111000 M⁻¹ s⁻¹

Question: What about the Kcat/Km [50] of the same protein?
Answer: > 500000 M⁻¹ s⁻¹

Question: And the Kcat/Km [51]?
Answer: 879 M⁻¹ s⁻¹
